Values belong to the compound of their own block, whether it stands above or below them.
What was measured:
WsTR-I [1] = biological target: T1, WsTR-I (Withania somnifera, UniProt U5PUZ1); assay: spectrophotometric A340, NADPH oxidation; assay type: biochemical; conditions: forward reaction, MES-NaOH pH 6.7, 30°C, kcat per monomer, unit inferred from kcat/Km
T1 construct: His6-tagged (pET28a NdeI/BamHI), E. coli BL21 (DE3); Ni-NTA and gel filtration; homodimer about 60 kDa
Excerpt: (§1) spectrophotometric A340, NADPH oxidation on WsTR-I

WsTR-I [2] = biological target: T1, WsTR-I; assay: spectrophotometric A340, NADP+ reduction; assay type: biochemical; conditions: reverse reaction; tropine; 30°C; printed kcat 0.54 (no unit) disagrees with printed kcat/Km
Excerpt: spectrophotometric A340, NADP+ reduction on WsTR-I

[3] = biological target: Withania somnifera tropine forming tropinone reductase (WsTR-I), recombinant His6-WsTR-I (Withania somnifera); assay: SEC; calibrated Sephadex G-150 column (70.0 cm x 0.6 cm), 0.1 M MES-NaOH pH 6.7 with 0.1 M NaCl, 5 ml/h; markers ovalbumin, BSA, alcohol dehydrogenase; elution followed by catalytic activity; native mass about 60 kDa compared with the 29.41 kDa subunit
[4] = tested on: CN1[C@@H]2CC[C@H]1CC(=O)C2; assay: spectrophotometric A340, NADPH oxidation; assay type: biochemical, Withania somnifera; conditions: forward reaction, MES-NaOH pH 6.7, 30°C, kcat per monomer, unit inferred from kcat/Km
Excerpt: as §1

Compound: NC(=O)C1=CN([C@@H]2O[C@H](COP(=O)(O)OP(=O)(O)OC[C@H]3O[C@@H](n4cnc5c(N)ncnc54)[C@H](OP(=O)(O)O)[C@@H]3O)[C@@H](O)[C@H]2O)C=CC1 [NADPH]
Km (WsTR-I [1]; tropinone): 0.43 µM

Compound: WsTR-I (Withania somnifera)
Km [4]: 1270 µM | kcat [4]: 9.51 s⁻¹ | kcat/Km [4]: 7490 M⁻¹ s⁻¹

Compound: CC1CCCC(=O)C1 (stereo not shown) [3-methyl-cyclohexanone]
Km (WsTR-I [1]; NADPH): 2110 µM

Now from value to compound:

Km (WsTR-I [2]): 96.2 µM
Compound: NC(=O)c1ccc[n+]([C@@H]2O[C@H](COP(=O)(O)OP(=O)(O)OC[C@H]3O[C@@H](n4cnc5c(N)ncnc54)[C@H](OP(=O)(O)O)[C@@H]3O)[C@@H](O)[C@H]2O)c1 [NADP^+]

stoichiometry N [3]: 2
Compound: Withania somnifera tropine forming tropinone reductase (WsTR-I), recombinant His6-WsTR-I (enzyme)

From PMC3783447, “Tropine Forming Tropinone Reductase Gene from Withania somnifera (Ashwagandha): Biochemical Characteristics of the Recombinant Enzyme and Novel Physiological Overtones of Tissue-Wide Gene Expression Patterns” (PLoS ONE, 2013)
